B1: Estrogen receptor alpha (ERα), purified human protein (receptor, UniProt P03372 1-595, looked up)
chain: MTMTLHTKASGMALLHQIQGNELEPLNRPQLKIPLERPLGEVYLDSSKPAVYNYPEGAAYEFNAAAAANAQVYGQTGLPYGPGSEAAAFGSNGLGGFPPLNSVSPSPLMLLHPPPQLSPFLQPHGQQVPYYLENEPSGYTVREAGPPAFYRPNSDNRRQGGRERLASTNDKGSMAMESAKETRYCAVCNDYASGYHYGVWSCEGCKAFFKRSIQGHNDYMCPATNQCTIDKNRRKSCQACRLRKCYEVGMMKGGIRKDRRGGRMLKHKRQRDDGEGRGEVGSAGDMRAANLWPSPLMIKRSKKNSLALSLTADQMVSALLDAEPPILYSEYDPTRPFSEASMMGLLTNLADRELVHMINWAKRVPGFVDLTLHDQVHLLECAWLEILMIGLVWRSMEHPGKLLFAPNLLLDRNQGKCVEGMVEIFDMLLATSSRFRMMNLQGEEFVCLKSIILLNSGVYTFLSSTLKSLEEKDHIHRVLDKITDTLIHLMAKAGLTLQQQHQRLAQLLLILSHIRHMSNKGMEHLYSMKCKNVVPLYDLLLEMLDAHRLHAPTSRGGASVEETDQSHLATAGSTSSHSLQKYYITGEAEGFPATV
B2: CARM1, purified human protein (enzyme, UniProt Q86X55 1-608, looked up)
chain: MAAAAAAVGPGAGGAGSAVPGGAGPCATVSVFPGARLLTIGDANGEIQRHAEQQALRLEVRAGPDSAGIALYSHEDVCVFKCSVSRETECSRVGKQSFIITLGCNSVLIQFATPNDFCSFYNILKTCRGHTLERSVFSERTEESSAVQYFQFYGYLSQQQNMMQDYVRTGTYQRAILQNHTDFKDKIVLDVGCGSGILSFFAAQAGARKIYAVEASTMAQHAEVLVKSNNLTDRIVVIPGKVEEVSLPEQVDIIISEPMGYMLFNERMLESYLHAKKYLKPSGNMFPTIGDVHLAPFTDEQLYMEQFTKANFWYQPSFHGVDLSALRGAAVDEYFRQPVVDTFDIRILMAKSVKYTVNFLEAKEGDLHRIEIPFKFHMLHSGLVHGLAFWFDVAFIGSIMTVWLSTAPTEPLTHWYQVRCLFQSPLFAKAGDTLSGTCLLIANKRQSYDISIVAQVDQTGSKSSNLLDLKNPFFRYTGTTPSPPPGSHYTSPSENMWNTGSTYNLSSGMAVAGMPTAYDLSSVIASGSSVGHNNLIPLANTGIVNHTHSRMGSIMSTGIVQGSSGAQGSGGGSTSAHYAVNSQFTMGGPAISMASPMSIPTNTMHYGS

Key:
[1] = biological target: p300, purified recombinant protein from baculovirus (human, UniProt Q09472 1-2414); experiment: cryo-EM structure
[2] = biological target: B2; experiment: cryo-EM structure

Chain of p300, purified recombinant protein from baculovirus (Q09472 whole entry): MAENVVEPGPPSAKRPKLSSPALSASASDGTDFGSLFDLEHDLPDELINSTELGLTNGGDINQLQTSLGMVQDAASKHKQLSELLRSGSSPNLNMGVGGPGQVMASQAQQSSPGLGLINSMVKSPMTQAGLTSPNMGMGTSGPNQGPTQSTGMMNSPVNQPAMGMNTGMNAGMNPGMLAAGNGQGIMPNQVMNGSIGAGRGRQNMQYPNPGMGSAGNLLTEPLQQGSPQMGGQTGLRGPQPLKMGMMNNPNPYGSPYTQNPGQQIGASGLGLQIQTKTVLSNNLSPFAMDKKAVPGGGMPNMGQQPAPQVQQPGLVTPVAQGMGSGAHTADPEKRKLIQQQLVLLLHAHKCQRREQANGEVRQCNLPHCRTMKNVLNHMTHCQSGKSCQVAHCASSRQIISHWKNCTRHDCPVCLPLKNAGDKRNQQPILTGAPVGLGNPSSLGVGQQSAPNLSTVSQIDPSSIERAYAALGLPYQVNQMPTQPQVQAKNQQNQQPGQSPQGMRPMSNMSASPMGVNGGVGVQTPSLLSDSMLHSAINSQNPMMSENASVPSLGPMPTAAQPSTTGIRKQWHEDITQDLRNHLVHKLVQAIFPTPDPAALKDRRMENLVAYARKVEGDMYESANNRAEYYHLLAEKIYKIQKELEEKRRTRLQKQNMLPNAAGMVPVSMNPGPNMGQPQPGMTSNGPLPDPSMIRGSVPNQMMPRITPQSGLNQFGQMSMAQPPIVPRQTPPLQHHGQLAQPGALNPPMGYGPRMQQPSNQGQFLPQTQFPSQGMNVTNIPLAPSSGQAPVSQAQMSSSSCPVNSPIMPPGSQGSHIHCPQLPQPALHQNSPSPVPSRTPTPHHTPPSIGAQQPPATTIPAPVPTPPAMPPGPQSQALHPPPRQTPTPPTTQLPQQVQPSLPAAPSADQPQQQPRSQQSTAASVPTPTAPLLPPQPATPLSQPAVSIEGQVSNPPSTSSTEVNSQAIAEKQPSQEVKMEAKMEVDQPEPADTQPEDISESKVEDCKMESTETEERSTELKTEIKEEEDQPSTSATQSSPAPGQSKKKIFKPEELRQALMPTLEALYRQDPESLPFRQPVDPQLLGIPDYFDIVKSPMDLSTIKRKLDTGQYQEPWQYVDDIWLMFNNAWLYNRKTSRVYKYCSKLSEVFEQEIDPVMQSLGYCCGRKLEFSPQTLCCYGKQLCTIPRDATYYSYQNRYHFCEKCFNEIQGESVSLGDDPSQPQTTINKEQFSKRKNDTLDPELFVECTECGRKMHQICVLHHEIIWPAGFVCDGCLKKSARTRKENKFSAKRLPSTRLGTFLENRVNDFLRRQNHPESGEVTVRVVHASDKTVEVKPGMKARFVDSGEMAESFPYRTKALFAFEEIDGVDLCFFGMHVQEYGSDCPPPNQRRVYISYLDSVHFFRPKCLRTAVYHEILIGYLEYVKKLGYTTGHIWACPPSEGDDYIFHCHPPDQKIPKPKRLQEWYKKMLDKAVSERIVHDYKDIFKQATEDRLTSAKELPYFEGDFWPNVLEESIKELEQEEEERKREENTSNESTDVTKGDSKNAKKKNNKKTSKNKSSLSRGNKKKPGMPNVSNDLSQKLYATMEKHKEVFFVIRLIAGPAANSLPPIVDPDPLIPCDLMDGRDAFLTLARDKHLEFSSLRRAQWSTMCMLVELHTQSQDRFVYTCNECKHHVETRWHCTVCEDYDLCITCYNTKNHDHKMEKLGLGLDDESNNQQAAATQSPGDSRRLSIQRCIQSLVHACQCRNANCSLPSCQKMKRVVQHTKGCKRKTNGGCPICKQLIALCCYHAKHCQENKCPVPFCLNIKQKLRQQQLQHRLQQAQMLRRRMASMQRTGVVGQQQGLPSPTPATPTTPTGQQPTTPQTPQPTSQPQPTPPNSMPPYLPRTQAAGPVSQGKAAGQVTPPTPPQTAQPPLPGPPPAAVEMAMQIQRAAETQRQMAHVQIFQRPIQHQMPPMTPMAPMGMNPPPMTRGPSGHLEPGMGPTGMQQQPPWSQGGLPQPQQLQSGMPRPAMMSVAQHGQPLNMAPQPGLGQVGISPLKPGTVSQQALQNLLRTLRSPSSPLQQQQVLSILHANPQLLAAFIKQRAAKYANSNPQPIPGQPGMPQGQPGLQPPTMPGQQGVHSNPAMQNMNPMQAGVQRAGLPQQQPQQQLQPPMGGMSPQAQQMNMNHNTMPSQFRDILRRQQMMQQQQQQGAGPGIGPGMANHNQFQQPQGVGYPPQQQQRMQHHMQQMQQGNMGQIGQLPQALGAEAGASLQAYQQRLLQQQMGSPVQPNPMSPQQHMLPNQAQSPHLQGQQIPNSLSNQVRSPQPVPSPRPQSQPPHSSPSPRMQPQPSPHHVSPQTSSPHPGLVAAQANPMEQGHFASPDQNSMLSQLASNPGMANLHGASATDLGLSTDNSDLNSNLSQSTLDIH

binding result [1] | binding result [2] | Binder
binds | binds | B1
binds | – | B2
